Values belong to the molecule of their own block, whether it stands above or below them.
What was measured:
[1] = biological target: T1, mouse PK2 receptor (mouse, UniProt Q8K458 1-381); experiment: cell-based or functional assay
T1 construct: Heptahelical G-protein-coupled receptor; also called mouse PKR2

[2] = biological target: PKR2 stably expressed in Chinese Hamster Ovary cells (CHO-PKR2); experiment: cell-based or functional assay
[3] = biological target: T1, mouse PK2 receptor; experiment: radioligand binding assay with iodinated PK2 (FIG. 11)
From the text: An exemplary assay for determining binding of detectably labeled PK2, PK1 or PK2/PK1 chimera to PK2 receptor or PK1 receptor is the radioligand filter binding assay described in Li et al. Molecular Pharmacology 59:692-698 (2001)). […] A variety of other low- and high-throughput assays suitable for detecting selective binding interactions between a receptor and a ligand are known in the art. Such assays include, for example, fluorescence correlation spectroscopy (FCS) and scintillation proximity assays (SPA) reviewed in Major, J. Receptor and Signal Transduction Res. 15:595-607 (1995); and in Sterrer et al., J. Receptor and Signal Transduction Res. 17:511-520 (1997)). Binding assays can be performed in any suitable assay format including, for example, cell preparations such as whole cells or membranes that contain PK2 receptor or PK1 receptor, or substantially purified PK2 receptor polypeptide or PK1 receptor, either in solution or bound to a solid support.

T1 sequence (Q8K458 whole entry): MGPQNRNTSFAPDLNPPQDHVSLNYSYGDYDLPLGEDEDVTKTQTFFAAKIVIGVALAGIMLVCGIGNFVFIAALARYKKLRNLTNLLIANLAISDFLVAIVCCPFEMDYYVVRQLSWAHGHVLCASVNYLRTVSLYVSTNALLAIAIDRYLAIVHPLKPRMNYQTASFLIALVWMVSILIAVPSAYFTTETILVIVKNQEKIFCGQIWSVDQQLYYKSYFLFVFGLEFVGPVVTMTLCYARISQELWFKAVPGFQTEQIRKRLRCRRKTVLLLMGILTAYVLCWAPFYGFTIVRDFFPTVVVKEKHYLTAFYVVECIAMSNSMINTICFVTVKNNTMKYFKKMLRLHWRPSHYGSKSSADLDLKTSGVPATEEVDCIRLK

- calcium ion mobilization (PK2 receptor activation assay), printed as kd [1]: 2.9 nM
Molecule: human PK2 (from UniProt Q9HC23 28-129) (ligand)

- EC50, calcium mobilization [2]: 7.3 nM
- fold stimulation of CLOCK:BMAL1-mediated transcription of the 2.8 kb PK2 promoter (luciferase reporter) [2]: 4 fold
Molecule: purified recombinant mouse PK2 (from UniProt Q9QXU7 27-128) (ligand)

- Kd [3]: ~1 nM
B1: ^125I-human PK2 (ligand)
chain: AVITGACDKDSQCGGGMCCAVSIWVKSIRICTPMGKLGDSCHPLTRKVPFFGRRMHHTCPCLPGLACLRTSFNRFICLAQK
modifications: radioiodinated with ^125I (paragraph 77 describes human PK2 radioiodinated at the core Tyr, citing Li et al. 2001)
notes: also called iodinated PK2

From US20030235535A1 (University of California, published 2003)
